Biological target: FGFR1 (UniProt P11362)
Test: phosphorylation enrichment, bacterial display (enrichment ratio); higher = better substrate or ligand; peptides without Tyr show the background
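Note: 11-residue human phosphosite peptides and single-mutation variants displayed on the E. coli surface, counted by deep sequencing, each peptide's frequency after selection divided by its frequency in the unselected input library; frequency after pTyr selection over input frequency; kinase dosed for 20-30% of maximal phosphorylation in three min.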

FGFR1, sequence (P11362 whole entry, looked up): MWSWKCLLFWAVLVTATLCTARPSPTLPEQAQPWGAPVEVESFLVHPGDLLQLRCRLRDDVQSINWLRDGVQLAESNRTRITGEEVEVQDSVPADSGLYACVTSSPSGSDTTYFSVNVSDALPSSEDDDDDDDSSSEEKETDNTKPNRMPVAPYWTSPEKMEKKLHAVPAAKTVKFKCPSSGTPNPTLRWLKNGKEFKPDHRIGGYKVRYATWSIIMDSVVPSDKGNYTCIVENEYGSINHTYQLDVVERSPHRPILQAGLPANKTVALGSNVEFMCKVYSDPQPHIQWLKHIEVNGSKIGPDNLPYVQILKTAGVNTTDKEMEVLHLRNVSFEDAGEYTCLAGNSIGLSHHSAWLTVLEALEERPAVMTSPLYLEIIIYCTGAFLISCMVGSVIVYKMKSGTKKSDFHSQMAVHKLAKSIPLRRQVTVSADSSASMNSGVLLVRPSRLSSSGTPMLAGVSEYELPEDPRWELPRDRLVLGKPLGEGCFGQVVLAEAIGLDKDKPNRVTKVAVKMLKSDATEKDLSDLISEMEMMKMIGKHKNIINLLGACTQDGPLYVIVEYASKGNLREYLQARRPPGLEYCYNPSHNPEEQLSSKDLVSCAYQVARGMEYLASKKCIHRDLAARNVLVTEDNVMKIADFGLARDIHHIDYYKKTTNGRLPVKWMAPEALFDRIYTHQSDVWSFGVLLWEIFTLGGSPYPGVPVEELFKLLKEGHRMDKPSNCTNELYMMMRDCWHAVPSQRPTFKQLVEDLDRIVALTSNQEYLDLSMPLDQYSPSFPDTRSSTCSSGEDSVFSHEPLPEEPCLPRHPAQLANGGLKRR

Sequence | phosphorylation enrichment
NETNKYQISVN [FGB_Y368_A365T] | 0.411
KLCHLYQDHMQ [WNT5A_Y86] | 0.44
KLKPIYFHTQG [AR_Y916_V912L] | 0.511
SDYSSYARTSI [TERT_Y949] | 0.553
EKGEEYGGGGG [TUBA1A_Y451_E447K] | 0.578
IQTDGYRAPEA [UHMK1_Y197] | 0.447
PLRPDYQEPSR [DDR2_Y481] | 0.532
LTPVKYLLSAT [GSDMC_Y26] | 0.46
KSAAIYNPVIY [RHO_Y301] | 1.41
GIVEDYRPTFY [ACVRL1_Y421_P424T] | 0.441
TSNQEYLFLSM [FGFR1_Y766_D768Y_YF] | 5.2
SGFESYGSSSY [RPA2_Y9] | 0.368
DNPAKYFILES [DPP10_Y512] | 0.508
NPPGMYPVTGP [LPP_Y346] | 0.394
TEDAEYDVQSK [PTCHD3_Y335_P333A] | 0.515
FDDIAYIQKTL [PIK3CA_Y1021_R1023Q] | 0.503
PSAELYSFALP [PDGFRB_Y716_N718Y_YF] | 6.2

Sequence | phosphorylation enrichment
EQQRAYLEGTC [HLA-C_Y183_L180Q] | 0.599
MIRSAYALRGL [CPS1_Y590_G593R] | 0.474
IGMIIYFARKA [VCAM1_Y718] | 0.515
CGQDPCIRELG [UROS_Y19_Y19C] | 0.581
SVTCTYSPALD [TP53_Y126_N131D] | 0.616
RGGDSYGGPPR [RBMX_Y190_R187G] | 0.454
WHHTFYNELRV [ACTA1_Y93] | 0.552
SSREGYVSHHN [FAM83B_Y433] | 0.443
ASTHIYQIMNH [ITK_Y588_V587I] | 0.735
SSQTVYQRVEG [TFR2_Y23] | 0.526
PEADKYCLTYA [FGG_Y300_R301C] | 0.486
QSMEPYTKQQL [STAT3_Y640_V637M] | 0.51
CTTIHYNYTCN [TP53_Y234_M237T] | 0.47
LKVQVYILGRE [ASS1_Y359_G356V] | 1.34
ANNQRYAFMPL [TMEM87B_Y460] | 0.535
SVVVPYEPPEF [TP53_Y220_V225F] | 0.49

Biological target: EPHB1 (UniProt P54762)
Test: as above

EPHB1, sequence (P54762 whole entry, looked up): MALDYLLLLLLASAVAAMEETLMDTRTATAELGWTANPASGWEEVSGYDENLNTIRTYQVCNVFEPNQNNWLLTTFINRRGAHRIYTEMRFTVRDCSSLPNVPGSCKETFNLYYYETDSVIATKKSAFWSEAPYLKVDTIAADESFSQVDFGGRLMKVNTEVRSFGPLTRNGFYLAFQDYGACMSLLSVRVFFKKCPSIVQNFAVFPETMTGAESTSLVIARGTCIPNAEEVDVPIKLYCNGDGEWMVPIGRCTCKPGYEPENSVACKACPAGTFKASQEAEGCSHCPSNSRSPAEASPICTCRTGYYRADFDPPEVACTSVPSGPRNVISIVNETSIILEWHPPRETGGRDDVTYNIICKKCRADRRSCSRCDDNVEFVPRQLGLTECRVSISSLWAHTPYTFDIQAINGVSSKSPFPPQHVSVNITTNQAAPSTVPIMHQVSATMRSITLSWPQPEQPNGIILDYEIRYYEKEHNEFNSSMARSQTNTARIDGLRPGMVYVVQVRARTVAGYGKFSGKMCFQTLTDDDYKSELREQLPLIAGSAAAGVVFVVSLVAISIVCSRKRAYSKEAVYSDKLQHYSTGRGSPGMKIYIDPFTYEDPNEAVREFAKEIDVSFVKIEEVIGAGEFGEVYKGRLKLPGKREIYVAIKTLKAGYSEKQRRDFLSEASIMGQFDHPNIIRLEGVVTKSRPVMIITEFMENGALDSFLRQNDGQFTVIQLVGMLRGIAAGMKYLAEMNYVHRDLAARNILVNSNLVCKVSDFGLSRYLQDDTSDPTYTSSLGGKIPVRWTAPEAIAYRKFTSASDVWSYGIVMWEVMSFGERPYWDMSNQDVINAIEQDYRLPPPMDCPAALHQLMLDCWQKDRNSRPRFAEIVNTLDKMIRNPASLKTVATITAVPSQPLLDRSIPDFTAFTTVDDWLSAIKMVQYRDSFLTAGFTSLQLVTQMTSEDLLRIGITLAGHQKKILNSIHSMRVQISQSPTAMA

Sequence | phosphorylation enrichment
NETNKYQISVN [FGB_Y368_A365T] | 0.427
KLCHLYQDHMQ [WNT5A_Y86] | 0.54
KLKPIYFHTQG [AR_Y916_V912L] | 0.393
SDYSSYARTSI [TERT_Y949] | 1.63
EKGEEYGGGGG [TUBA1A_Y451_E447K] | 0.585
IQTDGYRAPEA [UHMK1_Y197] | 0.782
PLRPDYQEPSR [DDR2_Y481] | 0.581
LTPVKYLLSAT [GSDMC_Y26] | 0.585
KSAAIYNPVIY [RHO_Y301] | 0.805
GIVEDYRPTFY [ACVRL1_Y421_P424T] | 0.561
TSNQEYLFLSM [FGFR1_Y766_D768Y_YF] | 0.765
SGFESYGSSSY [RPA2_Y9] | 0.341
DNPAKYFILES [DPP10_Y512] | 0.544
NPPGMYPVTGP [LPP_Y346] | 0.375
TEDAEYDVQSK [PTCHD3_Y335_P333A] | 0.611
FDDIAYIQKTL [PIK3CA_Y1021_R1023Q] | 0.425
PSAELYSFALP [PDGFRB_Y716_N718Y_YF] | 10.7

Sequence | phosphorylation enrichment
EQQRAYLEGTC [HLA-C_Y183_L180Q] | 0.647
MIRSAYALRGL [CPS1_Y590_G593R] | 0.434
IGMIIYFARKA [VCAM1_Y718] | 0.487
CGQDPCIRELG [UROS_Y19_Y19C] | 0.44
SVTCTYSPALD [TP53_Y126_N131D] | 0.882
RGGDSYGGPPR [RBMX_Y190_R187G] | 0.399
WHHTFYNELRV [ACTA1_Y93] | 0.558
SSREGYVSHHN [FAM83B_Y433] | 0.345
ASTHIYQIMNH [ITK_Y588_V587I] | 8.67
SSQTVYQRVEG [TFR2_Y23] | 0.631
PEADKYCLTYA [FGG_Y300_R301C] | 0.722
QSMEPYTKQQL [STAT3_Y640_V637M] | 0.454
CTTIHYNYTCN [TP53_Y234_M237T] | 0.492
LKVQVYILGRE [ASS1_Y359_G356V] | 1.58
ANNQRYAFMPL [TMEM87B_Y460] | 0.655
SVVVPYEPPEF [TP53_Y220_V225F] | 0.558

Biological target: Fyn (UniProt P06241)
Test: as above

Fyn, sequence (P06241 whole entry, looked up): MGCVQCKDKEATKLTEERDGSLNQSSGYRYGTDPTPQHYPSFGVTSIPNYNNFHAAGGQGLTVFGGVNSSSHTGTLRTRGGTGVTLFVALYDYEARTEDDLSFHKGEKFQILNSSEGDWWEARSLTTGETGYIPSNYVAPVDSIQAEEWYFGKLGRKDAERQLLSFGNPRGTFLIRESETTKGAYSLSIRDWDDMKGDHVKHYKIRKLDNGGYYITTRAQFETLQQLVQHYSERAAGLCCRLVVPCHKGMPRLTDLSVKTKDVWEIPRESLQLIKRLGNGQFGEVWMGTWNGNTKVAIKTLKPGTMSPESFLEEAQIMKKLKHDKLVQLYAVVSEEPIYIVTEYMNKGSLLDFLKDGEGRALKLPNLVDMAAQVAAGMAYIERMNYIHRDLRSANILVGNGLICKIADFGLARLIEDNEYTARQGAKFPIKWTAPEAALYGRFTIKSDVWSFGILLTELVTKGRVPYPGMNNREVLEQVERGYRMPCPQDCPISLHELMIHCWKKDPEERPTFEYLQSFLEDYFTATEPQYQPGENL

Sequence | phosphorylation enrichment
NETNKYQISVN [FGB_Y368_A365T] | 0.415
KLCHLYQDHMQ [WNT5A_Y86] | 0.442
KLKPIYFHTQG [AR_Y916_V912L] | 0.349
SDYSSYARTSI [TERT_Y949] | 0.845
EKGEEYGGGGG [TUBA1A_Y451_E447K] | 0.448
IQTDGYRAPEA [UHMK1_Y197] | 0.428
PLRPDYQEPSR [DDR2_Y481] | 0.509
LTPVKYLLSAT [GSDMC_Y26] | 0.396
KSAAIYNPVIY [RHO_Y301] | 7.54
GIVEDYRPTFY [ACVRL1_Y421_P424T] | 0.513
TSNQEYLFLSM [FGFR1_Y766_D768Y_YF] | 0.574
SGFESYGSSSY [RPA2_Y9] | 0.44
DNPAKYFILES [DPP10_Y512] | 0.485
NPPGMYPVTGP [LPP_Y346] | 0.336
TEDAEYDVQSK [PTCHD3_Y335_P333A] | 0.539
FDDIAYIQKTL [PIK3CA_Y1021_R1023Q] | 0.479
PSAELYSFALP [PDGFRB_Y716_N718Y_YF] | 7.74

Sequence | phosphorylation enrichment
EQQRAYLEGTC [HLA-C_Y183_L180Q] | 0.518
MIRSAYALRGL [CPS1_Y590_G593R] | 0.39
IGMIIYFARKA [VCAM1_Y718] | 0.481
CGQDPCIRELG [UROS_Y19_Y19C] | 0.468
SVTCTYSPALD [TP53_Y126_N131D] | 0.641
RGGDSYGGPPR [RBMX_Y190_R187G] | 0.524
WHHTFYNELRV [ACTA1_Y93] | 0.502
SSREGYVSHHN [FAM83B_Y433] | 0.457
ASTHIYQIMNH [ITK_Y588_V587I] | 4.85
SSQTVYQRVEG [TFR2_Y23] | 0.6
PEADKYCLTYA [FGG_Y300_R301C] | 0.691
QSMEPYTKQQL [STAT3_Y640_V637M] | 0.462
CTTIHYNYTCN [TP53_Y234_M237T] | 0.445
LKVQVYILGRE [ASS1_Y359_G356V] | 1.13
ANNQRYAFMPL [TMEM87B_Y460] | 0.436
SVVVPYEPPEF [TP53_Y220_V225F] | 0.427

Tested on: c-Abl (mouse)
Test: as above

Sequence | phosphorylation enrichment
NETNKYQISVN [FGB_Y368_A365T] | 0.57
KLCHLYQDHMQ [WNT5A_Y86] | 0.597
KLKPIYFHTQG [AR_Y916_V912L] | 0.568
SDYSSYARTSI [TERT_Y949] | 0.639
EKGEEYGGGGG [TUBA1A_Y451_E447K] | 0.384
IQTDGYRAPEA [UHMK1_Y197] | 0.725
PLRPDYQEPSR [DDR2_Y481] | 0.861
LTPVKYLLSAT [GSDMC_Y26] | 0.593
KSAAIYNPVIY [RHO_Y301] | 0.727
GIVEDYRPTFY [ACVRL1_Y421_P424T] | 0.899
TSNQEYLFLSM [FGFR1_Y766_D768Y_YF] | 0.813
SGFESYGSSSY [RPA2_Y9] | 0.718
DNPAKYFILES [DPP10_Y512] | 0.558
NPPGMYPVTGP [LPP_Y346] | 0.506
TEDAEYDVQSK [PTCHD3_Y335_P333A] | 0.848
FDDIAYIQKTL [PIK3CA_Y1021_R1023Q] | 0.591
PSAELYSFALP [PDGFRB_Y716_N718Y_YF] | 1.51

Sequence | phosphorylation enrichment
EQQRAYLEGTC [HLA-C_Y183_L180Q] | 0.834
MIRSAYALRGL [CPS1_Y590_G593R] | 0.502
IGMIIYFARKA [VCAM1_Y718] | 0.734
CGQDPCIRELG [UROS_Y19_Y19C] | 0.644
SVTCTYSPALD [TP53_Y126_N131D] | 1.24
RGGDSYGGPPR [RBMX_Y190_R187G] | 0.735
WHHTFYNELRV [ACTA1_Y93] | 0.657
SSREGYVSHHN [FAM83B_Y433] | 0.445
ASTHIYQIMNH [ITK_Y588_V587I] | 1.24
SSQTVYQRVEG [TFR2_Y23] | 0.458
PEADKYCLTYA [FGG_Y300_R301C] | 0.917
QSMEPYTKQQL [STAT3_Y640_V637M] | 0.445
CTTIHYNYTCN [TP53_Y234_M237T] | 0.585
LKVQVYILGRE [ASS1_Y359_G356V] | 2.44
ANNQRYAFMPL [TMEM87B_Y460] | 0.528
SVVVPYEPPEF [TP53_Y220_V225F] | 0.743

Reference: the supplement of paper PMC10065799, “High-throughput profiling of sequence recognition by tyrosine kinases and SH2 domains using bacterial peptide display” (eLife, 2023)
